Reference: patent US20230034474A1 (AC IMMUNE, published 2023)
Like-named read-outs stand apart in the source and are kept apart here.

Legend:
[1] = target: T1, full-length sAPPalpha fragment (UniProt P05067-4 18-612, limits assumed); experiment: indirect ELISA, sAPPalpha coated
T1 construct: domain: sAPPalpha; Bought protein; also called soluble APP alpha; soluble amyloid precursor protein alpha
Procedure: (§1) Antibody target binding was evaluated by an enzyme-linked immunosorbent assay (ELISA). Briefly, Nunc MaxiSorp 96-well plates (Nunc) were coated for 18 h at 4° C. with 50 μL of 10 pg/mL Abeta1-42 or bovine serum albumin (BSA, Sigma) diluted in PBS. In selected assays, the full-length sAPPalpha fragment (Sigma) was additionally included by coating wells as described above, but at 4 pg/mL (0.04 μM). Plates were then washed 4-times with 300 μL of PBS containing 0.05% Tween20 (Millipore). To block non-specific binding to the plate, freshly prepared solution of PBS containing 0.05% Tween20 and 1% BSA, was added to each well (100 μL/well) and the plates were incubated for 1 h at 37° C. Primary antibodies were diluted to 100 nM in PBS containing 1% BSA and 0.05% Tween20, followed by 3-fold serial dilutions in duplicates. Solutions were added to plates at 50 μL/well and incubated for 1 h at 37° C. Subsequently, the plates were washed 4-times with 300 μL of PBS containing 0.05% Tween20. Plates were then incubated with horseradish peroxidase (HRP) conjugated goat anti-mouse secondary IgG (Abcam) for 1 h at 37° C. After final wash step (4-times with 300 μL of PBS containing 0.05% Tween20), plates were incubated with 3,3′,5,5′-tetramethylbenzidine (TMB) substrate (BD Biosciences) and reaction stopped with a Stop Solution (Sigma). Finally, optical densities (O.D.) were read at 450 nm absorption wavelength using a Tecan Infinite plate reader. Measured values are expressed as mean O.D. from a duplicate run ±1 standard deviation of the mean (S.D.).

[2] = target: T2, Human Abeta1-42 biotinylated at the peptide C-terminus (human, biotin at the peptide C-terminus); experiment: target capture ELISA
T2 construct: also called biotinylated Abeta1-42
Procedure: (§2) Briefly, a Nunc MaxiSorp 96-well plate (Nunc) was coated for 18 h at 4° C. with 50 μL of 5 pg/mL goat anti-mouse IgG, Fc-gamma fragment specific antibody (Jackson Immune Research) diluted in carbonate-bicarbonate buffer. The plate was then washed 4-times with 300 μL of PBS containing 0.05% Tween20 (Millipore). To block non-specific binding to the plate, freshly prepared solution of PBS containing 0.05% Tween20 and 1% BSA, was added to each well (100 μL/well) and the plate was incubated for 1 h at 37° C. […] Subsequently, the plate was washed 4-times with 300 μL of PBS containing 0.05% Tween20. […] After washing 4-times with 300 μL of PBS containing 0.05% Tween20, the plate was incubated for 45 min at ambient temperature with 50 μL/well of streptavidin-HRP (R&D systems) diluted 1:200 in PBS containing 1% BSA and 0.05% Tween20. The plate was again washed 4-times with 300 μL of PBS containing 0.05% Tween20 before incubating at ambient temperature for 20 or 30 min with 50 or 100 μL/well of 3,3′,5,5′-tetramethylbenzidine (TMB) enzyme substrate (BD Bioscience). Reaction was stopped with a 1.2 M HCl (Sigma) solution. Finally, optical densities (O.D.) were read at 450 nm absorption wavelength using a Tecan Infinite plate reader.

[3] = target: T2, Human Abeta1-42 biotinylated at the …; experiment: capture ELISA: antibody held on anti-mouse IgG Fc-coated plate, C-terminally biotinylated Abeta1-42 titrated in solution, streptavidin-HRP, O.D. 450 nm
Procedure: as §2

[4] = target: T2, Human Abeta1-42 biotinylated at the …; experiment: target capture ELISA: antibody held by anti-mouse Fc, biotinylated Abeta1-42 titrated in solution
Procedure: as §2

bovine serum albumin [5] = target: T3, bovine serum albumin (bovine, UniProt P02769 25-607); experiment: indirect ELISA, plate coated with BSA, antibody titrated, anti-mouse IgG-HRP, O.D. 450 nm
T3 construct: Negative control antigen; also called BSA
Procedure: (§3) Antibody target binding was evaluated by an enzyme-linked immunosorbent assay (ELISA). Briefly, Nunc MaxiSorp 96-well plates (Nunc) were coated for 18 h at 4° C. with 50 μL of 10 pg/mL Abeta1-42 or bovine serum albumin (BSA, Sigma) diluted in PBS. In selected assays, the full-length sAPPalpha fragment (Sigma) was additionally included by coating wells as described above, but at 4 pg/mL (0.04 μM). Plates were then washed 4-times with 300 μL of PBS containing 0.05% Tween20 (Millipore). To block non-specific binding to the plate, freshly prepared solution of PBS containing 0.05% Tween20 and 1% BSA, was added to each well (100 μL/well) and the plates were incubated for 1 h at 37° C. Primary antibodies were diluted to 100 nM in PBS containing 1% BSA and 0.05% Tween20, followed by 3-fold serial dilutions in duplicates. Solutions were added to plates at 50 μL/well and incubated for 1 h at 37° C. Subsequently, the plates were washed 4-times with 300 μL of PBS containing 0.05% Tween20. Plates were then incubated with horseradish peroxidase (HRP) conjugated goat anti-mouse secondary IgG (Abcam) for 1 h at 37° C. […] Finally, optical densities (O.D.) were read at 450 nm absorption wavelength using a Tecan Infinite plate reader. Measured values are expressed as mean O.D. from a duplicate run ±1 standard deviation of the mean (S.D.).

Abeta1-42 [6] = target: T4, Abeta1-42 (human); experiment: sandwich ELISA: ACI-31-25B1-Ab2 coated as capture, analyte Abeta1-42 titrated, biotinylated ACI-24-41F12-Ab3 as detection, streptavidin-HRP, O.D. 450 nm
T4 construct: coated on plates in the direct ELISA, in solution as analyte in the sandwich ELISA; also called human Abeta 1-42; amyloid-beta 1-42
Procedure: After washing 4-times with 300 μL of PBS containing 0.05% Tween20, the plate was incubated for 45 min at ambient temperature with 50 μL/well of streptavidin-HRP (R&D systems) diluted 1:200 in PBS containing 1% BSA and 0.05% Tween20. The plate was again washed 4-times with 300 μL of PBS containing 0.05% Tween20 before incubating at ambient temperature for 20 or 30 min with 50 or 100 μL/well of 3,3′,5,5′-tetramethylbenzidine (TMB) enzyme substrate (BD Bioscience). Reaction was stopped with a 1.2 M HCl (Sigma) solution. Finally, optical densities (O.D.) were read at 450 nm absorption wavelength using a Tecan Infinite plate reader.
Briefly, a Nunc MaxiSorp 96-well plate (Nunc) was coated for 18 h at 4° C. with 50 μL of capture antibody at 5 μg/mL, diluted in carbonate-bicarbonate buffer. The plate was then washed and blocked as described in the preceding paragraph.

Abeta1-42 [7] = target: T4, Abeta1-42; experiment: indirect ELISA, Abeta1-42 coated, antibody titrated
Procedure: as §1

[8] = target: T2, Human Abeta1-42 biotinylated at the …; experiment: capture ELISA: antibody held on anti-mouse IgG Fc-coated plate, C-terminally biotinylated Abeta1-42 titrated in solution, streptavidin-HRP, O.D. 450 nm; remark: listed apart in the source
Procedure: as §2

Abeta1-42 [9] = target: T4, Abeta1-42; experiment: indirect ELISA, plate coated with Abeta1-42, antibody titrated, anti-mouse IgG-HRP, O.D. 450 nm
Procedure: as §3

bovine serum albumin [10] = target: T3, bovine serum albumin; experiment: indirect ELISA, plate coated with BSA, antibody titrated, anti-mouse IgG-HRP, O.D. 450 nm; remark: listed apart in the source
Procedure: as §3

Abeta1-42 [11] = target: T4, Abeta1-42; experiment: indirect ELISA, plate coated with Abeta1-42, antibody titrated, anti-mouse IgG-HRP, O.D. 450 nm; remark: listed apart in the source
Procedure: as §3

[12] = target: T2, Human Abeta1-42 biotinylated at the …; experiment: capture ELISA: antibody held on anti-mouse IgG Fc-coated plate, C-terminally biotinylated Abeta1-42 titrated in solution, streptavidin-HRP, O.D. 450 nm; remark: listed apart in the source
Procedure: as §2

[13] = target: T2, Human Abeta1-42 biotinylated at the …; experiment: as above; remark: listed apart in the source
Procedure: as §2

T1 sequence (P05067 other isoform, or with tags, fused parts or gaps limits assumed): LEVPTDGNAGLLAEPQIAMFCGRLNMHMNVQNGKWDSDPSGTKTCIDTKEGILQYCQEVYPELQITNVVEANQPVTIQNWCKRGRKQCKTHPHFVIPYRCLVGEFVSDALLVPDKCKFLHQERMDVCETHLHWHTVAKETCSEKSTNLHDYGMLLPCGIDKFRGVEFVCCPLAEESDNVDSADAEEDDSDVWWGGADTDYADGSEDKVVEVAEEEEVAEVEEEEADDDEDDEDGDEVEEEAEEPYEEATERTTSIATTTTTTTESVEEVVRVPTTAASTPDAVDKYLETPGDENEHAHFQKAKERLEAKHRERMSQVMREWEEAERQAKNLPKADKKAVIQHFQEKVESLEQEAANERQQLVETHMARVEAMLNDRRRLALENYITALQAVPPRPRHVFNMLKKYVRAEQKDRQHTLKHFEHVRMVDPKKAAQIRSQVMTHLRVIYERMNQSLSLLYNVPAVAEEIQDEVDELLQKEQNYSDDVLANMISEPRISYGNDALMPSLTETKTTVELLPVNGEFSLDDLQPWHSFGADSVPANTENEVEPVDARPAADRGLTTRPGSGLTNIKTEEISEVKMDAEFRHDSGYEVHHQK

binding result [1] | binding result [2] | Binder | also measured
no binding | binds | ACI-8039-307F7-Ab2 (antibody, mouse IgG2a, kappa, V domains shown, Murine IgG2a/kappa; also called AC-8039-307F7-Ab2) VH: QVQLQQPGAELVRPGGSVKLSCKASGYSFTNYWMNWVKQRPGQGLEWIGMIHPSDSETRLNQKFKDKATLTVDKSSSTAYLQLSSPTSEDSAVYYCAKLLLYYFDYWGQGTTLTVSS VL: not shown | 
no binding | binds | ACI-8041-2B9H5-Ab1 (antibody, mouse IgG2a, kappa, V domains shown, Murine IgG2a/kappa; also called AC-8041-2B95-Ab1) VH: QVQLQQSDAELVKPGASVKISCKVSGYTFTDHPIHWMKQRPDQGLEWIGYFYPRDSSTHYNEKFKGKATLTADKSSSTAYMQLNSLTSEDSAVYFCARSMGYWGQGTSVTVSS VL: DIKMTQSPSSMYASLGERVTITCKASQDINSYLSWFQQKPGKSPKTLIYRANRLVDGVPSRFSGSGSGQDYSLTISSLDYEDMGIYYCLQYDEFPPTFGAGTKLELKR | 
no binding | binds | ACI-8039-309D9-Ab2 (antibody, mouse IgG2a, kappa, V domains shown, Murine IgG2a/kappa; also called AC-8039-309D9-Ab2) VH: QVQLQQSGPQLVRPGASVKISCKASGNSFTSYWMHWVKQRPGQGLEWIGMIDPSDSETRLNQKFKDKATLTVDKSSSTAYMQLSSPTSEDSAVYYCAGLYFTLDYWGQGTSVTVSS VL: DILMTQSPSSLTVSAGEKVTMSCKSSQSLLASGNQNNYLAWHQQKPGRSPKILIIWASTRVSGVPDRFIGSGSGTDFTLTINSVQAEDLAVYYCQQSYSAPLTFGAGTKLELKR | 
no binding |  | ACI-8041-1F11B5-Ab1 (antibody, mouse IgG2a, kappa, V domains shown, Murine IgG2a/kappa; also called ACI-8041-1F111B5-Ab1; ACI-8041- F1B5-Ab1) VH: QVQLKESGPGLVAPSQSLSITCTVSGFSLTNYGVSWIRQPPGKGLEWLGVIWGDGSTNYHSALISRLSISKDNSKSQVFLKLNSLQTDDTATYYCTKGAGSWGQGIPVTVSA VL: not shown | EC50 (read off the curve) [3]: ~0.3 nM; Kd [4]: 0.343 nM
no binding | binds | ACI-8041-5A6H9-Ab1 (antibody, mouse IgG2a, kappa, V domains shown, Murine IgG2a/kappa; also called ACI-8041-5A61H9-Ab1; AC-8041-5A619-Ab1) VH: DVQLQESGPGLVKPSQSLSLTCTVTGYSITSDYAWNWIRQFPGNKLEWMGYIDYSGITSYNPSLKSRISITRDTSKNQFFLQLNSVTTEDSATYYCARISGLDYDVRAGWFASWGQGTLVTVSA VL: DIVMTQAAFSNPVTLGTSVSISCRSSKSLLHSNGITYLYWYLQKPGQSPQLLIYQMSNLASGVPDRFSSSGSGTDFTLRISRVEAEDVGVYYCAQNLERPLTFGAGTKLELKR | 
 |  | ACI-31-25B1-Ab2 (murine IgG2a with a lambda light chain) (antibody, V domains shown, also called AC-31-25B1-Ab2) VH: EVQLVESGGDLVKPGGSLKLSCAASRFTFSTYGMSWVRQTPDKRLEWVATISSGRSYTYYADSVKGRFTISRDNAKNTLYLQMSSLKSEDTAMYYCARNSNNQRDYYAMDYWGQGTSVTVSS VL: QLVLTQSSSASFSLGASAKLTCTLSSQHITYTIEWYQQQPLKPPKYVMVLEKDGSHSTGDGIPDRFSGSSSGADRYLSISNIQPEDEAVYICGVGDAIKEQFVYVFGGGTKVTVLG | binding result (bovine serum albumin [5]): no binding (tested: 100 nM); EC50 (read off the curve) (Abeta1-42 [6]): ~9 nM; Kd (Abeta1-42 [7]): 0.041 nM; Kd [4]: 0.312 nM; EC50 (read off the curve) [8]: ~0.4 nM; EC50 (read off the curve) (Abeta1-42 [9]): ~0.04 nM
no binding | binds | ACI-8041-5A2D4-Ab1 (antibody, mouse IgG2a, kappa, V domains shown, Murine IgG2a/kappa) VH: EVQLQQSGPELVKPGASVKISCKTSGYTFTENTMHWVKQIHGKSLEWIGGINPNNGVTNNNQKFEGKATLTVDKSSSTAYMELRSLTSEDSAVYYCARSDYDALYYSMDCWGQGTSVTVSS VL: EIVLTQSPTTMAASPGEKITITCSGSSSIISNYLHWYQQKPGFSPKLLIYRTSNLASGVPTRFSGSGSGTSYSLTIGTMEAEDVATYYCQQGSSIPFTFGSGTKLEIKR | 
no binding | binds | ACI-8041-6C3C4-Ab1 (antibody, mouse IgG2a, kappa, V domains shown, Murine IgG2a/kappa; also called ACD-8041-63C4-Ab1) VH: EVQLQQSGPELVKPGASVNISCKTSGYTFTEYTMHWMKQSHGKSLEWIGGINPNNGVTGYNQKFKGRATLTVDKSSSTAYMELRSLTSEDSAVYYCARSDYDDLYYAMDYWGQGTSVTVSS VL: EIVLTQSPTTMAASPGEKITITCSASSSISSNYLHWYQQKPGFSPKLLIYRTSNLASGVPARFSGSGSGTSYSLTIGTMEAEDVATYYCQQGSSIPFTFGSGTKLEIKR | 
 | binds | ACI-24-41F12-Ab3 (IgG2a isotype) (antibody, V domains shown, Recombinant murine IgG2a/kappa with the same VH/VL as ACI-24-41F12-Ab2; Biotinylated when used as detection antibody in the sandwich ELISA; also called ACI-24-41F12-Ab3-rec1) VH: not shown VL: DVLMTQTPLSLPVSLGDQASISCRSSQSIVHSNGNTYLEWYLQKPGQSPKLLIYKVSNRFSGVPDRFSGSGSGTDFTLKISRVEAEDLGVYYCFQGSHVPLTFGAGTKLELKR | binding result (bovine serum albumin [10]): no binding (tested: 100 nM); Kd (Abeta1-42 [7]): 0.066 nM; EC50 (read off the curve) (Abeta1-42 [11]): ~0.07 nM
no binding | binds | ACI-8039-306H5-Ab1 (antibody, mouse IgG2a, kappa, V domains shown, Murine IgG2a/kappa; also called AC-8039-306H5-Ab1) VH: QVTLKESGPGILKPSQTLSLTCSFSGFSLSTSGMGVGWIRQPSGKGLEWLAHIWWDDDKYYNPSLKSQLTISKDTSRNQIFLKITSVDTADTATYYCVRSLYFDYWGQGTTLTVSS VL: DVVMTQTPLSLPVSLGDQASISCRSSQSLVHSNGNTYLHWYLQKPGQSPKLLIYKVSNRFSGVPDRFSGSGSGTDFTLKISRVEAEDLGVYFCSQSTHVPLTFGAGTKLELKR | 
 | binds | ACI-8037-109F4-Ab1 (antibody, mouse IgG2a, kappa, V domains shown, Murine IgG2a/kappa) VH: QVTLKESGPGILQPSQTLSLTCSFSGFSLSTSGMGVSWIRQPSGKGLEWLAHIYWDDDKRYNPSLKSRLTISKDTSRNQVFLKITSVDTADAGTYYCARRPIRTVVDAMDYWGQGTSVTVSL VL: DVLMTQTPLSLPVSLGDQASISCRSSQTIVHSNGNTYLEWYLQKPGQSPNLLIYKVSNRFSGVPDRFSGSGSGTDFTLKISRVEAEDLGVYYCFQGSHVPLTFGAGTKLELKR | 
 | binds | ACI-8037-103H5-Ab2 (antibody, mouse IgG2a, kappa, V domains shown, Murine IgG2a/kappa) VH: QVTLKESGPGILKPSQTLSLTCSFSGFSLSTSGMGVGWIRQPSGKGLEWLAHIWWDDDKYYNPSLKSRLTISKDSSRNQVFLKITSVDTADTATYYCVRRGTRLEDYFDFWGQGTTLTVSS VL: DVLMTQTPLSLPVSLGDQASISCRSSRSIVHSNGNTYLEWYLQKPGQSPKLLIFKVSNRFSGVPDRFSGSGSGTDFTLKISRVEAEDQGVYYCFQGSHVPLTFGAGTKLELKR | 
no binding | binds | ACI-8041-3G11B3-Ab1 (antibody, mouse IgG2a, kappa, V domains shown, Murine IgG2a/kappa; also called ACD-8041-3G11B3-Ab1) VH: QVQLQQSGAELVKPGASVKLSCKASGYTFINYYIYWVKQRPGQGLEWIGEIIPSNDGTNFNEKFKTKATLTVDKSSSTAYMQLSSLTSEDSAVYYCTATGTVWGQGTLVTVSA VL: DVLMTQTPLSLPVSLGDQASISCRSSQSIVHSNGITYLEWYLQKPGQSPKLLIYKVSNRFSGVPDRFSGSGSGTDFTLKISRVEAEDLGVYYCFQGSHVPWTFGGGTKLEIKR | 
no binding | binds | ACI-8041-4G6D2-Ab1 (antibody, mouse IgG2a, kappa, V domains shown, Murine IgG2a/kappa) VH: QVQLQQSGAELVRPGASVKLSCKASGYTFTSYYMYWVKQRPGQGLEWIGEIIPSNGDTNFNEKFRSKATLTVDKSSSTAYMQLSSLTSEDSAVYYCTATGTVWGQGTLVTVSA VL: DVLMTQTPLSLPVSLGDQASISCRSSQSIVHSNGNTYLEWYLQKPGQSPKLLIYKVSNRFSGVPDRFSGSGSGTDFTLKISRVEAEDLGVYYCFQGSHVPWTFGGGTKLEIKR | 
no binding |  | ACI-8041-9D7E1-Ab1 (antibody, mouse IgG2a, kappa, V domains shown, Murine IgG2a/kappa) VH: EVMLVESGGGLVKPGGSLKLSCAASGFTFSSYAMSWVRQTPEKRLEWVATISSGGNYTYCPDSVKGRFTISRDNAKNTLYLQMSSLRSEDTAMYYCAAYAYDDGYYFDYWGQGTTLTVSS VL: not shown | EC50 (read off the curve) [12]: ~1 nM; Kd [4]: 1.1 nM
no binding |  | ACI-8041-10H3B11-Ab1 (antibody, mouse IgG2a, kappa, V domains shown, Murine IgG2a/kappa; Same VH as ACI-8041-9D7E1-Ab1; also called ACI-8041-11B3B11-Ab1; AC-8041-13B11-Ab) VH: EVMLVESGGGLVKPGGSLKLSCAASGFTFSSYAMSWVRQTPEKRLEWVATISSGGNYTYCPDSVKGRFTISRDNAKNTLYLQMSSLRSEDTAMYYCAAYAYDDGYYFDYWGQGTTLTVSS VL: DIQMTQSPSSLSASLGGKVTITCKASQDINKYIAWYQHKPGKGPRLLIHYTSTLQPGIPSRFSGSGSGRDYSFSISNLGPEDIATYYCLQYDNLLTFGGGTKLEIKR | EC50 (read off the curve) [13]: ~2 nM; Kd [4]: 2.6 nM
